The values that follow come from IntAct's records for PubMed 18583962.

B1: LIM domain-binding protein 1 (Mus musculus), P70662 (parent)
chain: MSVGCACPGCSSKSFKLYSPKEPPNGNAFPPFHPGTMLDRDVGPTPMYPPTYLEPGIGRHTPYGNQTDYRIFELNKRLQNWTEECDNLWWDAFTTEFFEDDAMLTITFCLEDGPKRYTIGRTLIPRYFRSIFEGGATELYYVLKHPKEAFHSNFVSLDCDQGSMVTQHGKPMFTQVCVEGRLYLEFMFDDMMRIKTWHFSIRQHRELIPRSILAMHAQDPQMLDQLSKNITRCGLSNSTLNYLRLCVILEPMQELMSRHKTYSLSPRDCLKTCLFQKWQRMVAPPAEPARQQPSKRRKRKMSGGSTMSSGGGNTNNSNSKKKSPASTFALSSQVPDVMVVGEPTLMGGEFGDEDERLITRLENTQFDAANGIDDEDSFNNSPALGANSPWNSKPPSSQESKSENPTSQASQ
partner: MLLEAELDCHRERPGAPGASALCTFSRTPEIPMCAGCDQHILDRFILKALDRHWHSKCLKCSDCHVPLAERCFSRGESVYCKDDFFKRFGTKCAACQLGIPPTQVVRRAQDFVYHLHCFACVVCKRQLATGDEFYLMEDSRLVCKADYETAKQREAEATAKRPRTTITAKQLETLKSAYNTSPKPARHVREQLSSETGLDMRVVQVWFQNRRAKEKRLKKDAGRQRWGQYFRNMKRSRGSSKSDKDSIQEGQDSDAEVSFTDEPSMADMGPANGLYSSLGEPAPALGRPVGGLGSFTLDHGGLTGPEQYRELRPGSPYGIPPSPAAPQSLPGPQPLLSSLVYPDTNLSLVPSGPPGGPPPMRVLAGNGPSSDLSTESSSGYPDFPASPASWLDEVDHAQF
B2: LIM domain-binding protein 1 (Mus musculus), P70662 (parent)
chain: B1 chain
partner: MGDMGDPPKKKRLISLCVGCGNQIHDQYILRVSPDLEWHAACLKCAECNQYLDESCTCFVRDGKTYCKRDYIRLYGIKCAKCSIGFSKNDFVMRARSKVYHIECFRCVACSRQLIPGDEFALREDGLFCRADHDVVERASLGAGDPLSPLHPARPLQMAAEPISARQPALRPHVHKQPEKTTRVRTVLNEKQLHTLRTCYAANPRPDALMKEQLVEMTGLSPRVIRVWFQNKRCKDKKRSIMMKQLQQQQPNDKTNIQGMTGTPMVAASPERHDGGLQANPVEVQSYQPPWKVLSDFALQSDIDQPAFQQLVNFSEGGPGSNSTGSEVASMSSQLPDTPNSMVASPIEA
B3: Insulin gene enhancer protein ISL-1 (Mus musculus), P61372 (parent)
chain: B2 partner
partner: B1 partner

Variants of B1 are the subject of the first test. Conditions: with lhx3_mouse Lhx3, P50481.
Consider L345A, for which the “effect of a mutation on the interaction” value is given as “disrupting interaction”.

Variants of B1 are the subject of another test. Conditions: with lhx3_mouse Lhx3, P50481. This is another data set of the same source.
In the case of V339A, the “effect of a mutation on the interaction” value is listed as “disrupting interaction”.

In another test the parent is B1. Conditions: with lhx3_mouse Lhx3, P50481. The source holds these as a separate data set.
With M338A, the “effect of a mutation on the interaction” value is reported as “disrupting interaction”.

Consider I358A, for which the “effect of a mutation on the interaction” value is “disrupting interaction”.

Another test covers variants of B1. The settings on record: with lhx3_mouse Lhx3, P50481. This is another data set of the same source.
For T344A, the “effect of a mutation on the interaction” value was “disrupting interaction”.

In another test the parent is B2. Conditions: with isl1_mouse Isl1, P61372.
Consider T359A;R360A;L361A, for which the “effect of a mutation on the interaction” value is “decreasing interaction”.

Variants of B2 are the subject of a further test. The settings on record: with isl1_mouse Isl1, P61372. The source holds these as a separate data set.
For the variant R356A;L357A;I358A, the “effect of a mutation on the interaction” value is “disrupting interaction”.

Variants of B2 are the subject of a further test. Conditions: with isl1_mouse Isl1, P61372. This is another data set of the same source.
Turning to T359A, the “effect of a mutation on the interaction” value is reported as “disrupting interaction”.

In the next test the parent is B3. Conditions: with lhx3_mouse Lhx3, P50481.
Regarding M265A, the “effect of a mutation on the interaction” value is listed as “disrupting interaction”.

A further test covers variants of B3. Conditions: with lhx3_mouse Lhx3, P50481. This is another data set of the same source.
In the case of T263A, the “effect of a mutation on the interaction” value is listed as “disrupting interaction”.

In the case of P264A, the “effect of a mutation on the interaction” value was “disrupting interaction”. Still for that read-out and setting: with G262A the entry was “disrupting interaction”.

A further test covers variants of B3. Conditions: with lhx3_mouse Lhx3, P50481. The source holds these as a separate data set.
Regarding A267G, the “effect of a mutation on the interaction” value is “disrupting interaction”.
